This note sets out measurements from publication PMC13189624, “MORC2 mediates transcriptional regulation through liquid-liquid phase separation” (eLife, 2026).

The chains are these.
B1: wild-type MORC2 901-1032 with Trx-tag [human] / itself (parent)
chain: LSTNHETIDLLVQILRNCLRYFLPPSFPISKKQLSAMNSDELISFPLKEYFKQYEVGLQNLCNSYQSRADSRAKASEESLRTSERKLRETEEKLQKLRTNIVALLQKVQEDIDINTDDELDAYIEDLITKGD

Variants of B1 are the subject of this experiment. As to the kind of experiment: static light-scattering (SLS) coupled to size-exclusion chromatography. The note with it: with itself; Trx tag (14 kDa) kept on constructs. (In gel filtration, larger molecules generally elute earlier.)
Consider LSTNHETIDLLVQILRNCLRYQLPPSFPISKKQLSAMNSDELISFPLKEYFKQYEVGLQNLCNSYQSRADSRAKASEESLRTSERKLRETEEKLQKLRTNIVALLQKVQEDIDINTDDELDAYIEDLITKGD, for which the molecular mass was 113 kDa.
The result for LSTNHETIDLQVQILRNCLRYFLPPSFPISKKQLSAMNSDELISFPLKEYFKQYEVGLQNLCNSYQSRADSRAKASEESLRTSERKLRETEEKLQKLRTNIVALLQKVQEDIDINTDDELDAYIEDLITKGD reads 79.8 kDa.
